The results in this text go back to US20220387557A1 (OXFORD UNIVERSITY INNOVATION, published 2022).

In experiment [1] the target is T1, Fc tagged mouse TNFR2 (Sino Biological) (mouse, UniProt P25119 23-258).
T1 construct: Bought reagent; also called mTNFR2; mTNF2; not shown: Fc tag of the bought protein
T1 sequence (looked up): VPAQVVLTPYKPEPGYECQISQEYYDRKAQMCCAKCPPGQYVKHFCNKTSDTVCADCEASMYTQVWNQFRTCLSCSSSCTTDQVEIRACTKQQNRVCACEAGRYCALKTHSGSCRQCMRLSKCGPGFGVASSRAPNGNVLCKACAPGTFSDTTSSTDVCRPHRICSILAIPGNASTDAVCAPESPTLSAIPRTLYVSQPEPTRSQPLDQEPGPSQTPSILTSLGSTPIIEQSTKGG
The experiment in a line: phage binding test on Fc tagged receptor.

In experiment [2] the target is T2, Fc tagged human TNFR2 (Sino Biological) (human, UniProt P20333 23-257).
T2 construct: Bought reagent; also called hTNFR2; hTNFR2-Fc; not shown: Fc tag of the bought protein
T2 sequence (looked up): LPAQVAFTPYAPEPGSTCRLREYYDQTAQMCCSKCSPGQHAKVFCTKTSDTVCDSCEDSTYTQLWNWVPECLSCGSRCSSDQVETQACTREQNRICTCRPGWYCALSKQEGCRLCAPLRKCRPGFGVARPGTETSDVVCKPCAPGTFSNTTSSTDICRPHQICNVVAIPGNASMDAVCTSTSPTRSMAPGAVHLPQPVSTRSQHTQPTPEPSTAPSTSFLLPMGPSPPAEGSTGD
In words: phage binding test on Fc tagged receptor.

In experiment [3] the target is T2, Fc tagged human TNFR2 (Sino Biological). The experiment in a line: SPR, Biacore T200 multi cycle kinetics, 1:1 model; ** = a residual amount of binding is observed but 1 to 1 model is a poor fit. On the procedure: (§1) Multi cycle kinetics analysis of binding to hTNFR1, hTNFR2, mTNFR1 and mTNFR2 was performed on the 10 lead variants using a Biacore T200 (serial no. 1909913) instrument running Biacore T200 Evaluation Software V3.0.1 (Uppsala, Sweden) to characterise further the binding to these receptors.
As with the single cycle kinetics, receptor binding was assessed in two separate experiments. In the first set of experiments binding to hTNFR1 (Fc2), hTNFR2 (Fc3) and mTNFR1 (Fc4) was assessed. In the second set of experiments the extent of mTNF2 (Fc4) binding was assessed using hTNFR1 (Fc2) and hTNFR2 (Fc3) as controls. All receptors were diluted in running buffer to a concentration of ˜4 μg/mL and at the start of each cycle loaded onto Fc2, Fc3 and Fc4 of a Protein A CM5 chip and captured at a flow rate of 10 μL/min to give an RU of ˜40-100. The surface was then allowed to stabilise. All kinetic data was obtained using a flow rate of 75 μl/min to minimise any potential mass transfer effects. […] The association phase of TNF was monitored for 280 seconds and the dissociation phase was measured for 2100 seconds. […] Regeneration of the Protein A surface was conducted using two injections of 10 mM glycine-HCL pH 1.5 at the end of each cycle. […]
Background: Surface plasmon resonance follows binding to a sensor surface in real time, without labels.

Experiment [4] deals with T3, Fc tagged mouse TNFR1 (Sino Biological) (mouse, UniProt P25118 22-212, limits assumed).
T3 construct: Bought reagent; also called mTNFR1; mTNFR1-Fc; not shown: Fc tag of the bought protein
T3 sequence (looked up): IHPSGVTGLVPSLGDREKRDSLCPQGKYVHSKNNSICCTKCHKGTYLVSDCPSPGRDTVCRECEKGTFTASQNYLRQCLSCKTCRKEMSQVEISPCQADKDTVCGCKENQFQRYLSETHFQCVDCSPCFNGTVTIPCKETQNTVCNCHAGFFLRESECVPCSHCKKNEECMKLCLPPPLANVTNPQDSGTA
In words: SPR, Biacore T200 single cycle kinetics, receptor-Fc captured on Protein A chip, TNF 1.67-15 nM. How it is done:
(§2) Single cycle kinetic analysis was performed using a Biacore T200 (serial no. 1909913) running Biacore T200 Evaluation Software V2.0.1 (Uppsala, Sweden). All experiments were run at 25° C. with HBS-P+ running buffer (pH 7.4) (GE Healthcare, Little Chalfont, UK).
(§3) Due to the limit in the number of available flow cells for analysis (three Fc per analysis, Fc2, Fc3 and Fc4, with Fc1 always being used as blank reference for non-specific subtraction), receptor binding was assessed in two separate overlapping runs using either: hTNFR1 (Fc2), hTNFR2 (Fc3) and mTNFR1 (Fc4), or; hTNFR1 (Fc2), […] and mTNFR2 (Fc4). Receptors were diluted in running buffer to a concentration of ˜4 μg/mL and at the start of each cycle loaded onto Fc2, Fc3 and Fc4 of a Protein A chip (GE Healthcare, Little Chalfont, UK) at a flow rate of 10 μL/min to give an RU of 40-100. The surface was then allowed to stabilise. Single cycle kinetic data was obtained at a flow rate of 45 μL/min. […] The association phase for the three injections of increasing concentrations of TNF was monitored for 240 seconds and a single dissociation phase was measured for 2700 seconds following the last injection of TNF. Regeneration of the Protein A surface was conducted using 10 mM glycine-HCl pH 1.5. The signal from the reference channel Fc1 (no receptor) was subtracted from that of Fc2, Fc3 and Fc4 to correct for differences in non-specific binding to a reference surface.

The target of experiment [5] is T4, Fc tagged human TNFR1 (Sino Biological) (human, UniProt P19438 22-211, limits assumed).
T4 construct: Bought reagent; also called hTNFR1; hTNFR1-Fc; not shown: Fc tag of the bought protein
T4 sequence (looked up): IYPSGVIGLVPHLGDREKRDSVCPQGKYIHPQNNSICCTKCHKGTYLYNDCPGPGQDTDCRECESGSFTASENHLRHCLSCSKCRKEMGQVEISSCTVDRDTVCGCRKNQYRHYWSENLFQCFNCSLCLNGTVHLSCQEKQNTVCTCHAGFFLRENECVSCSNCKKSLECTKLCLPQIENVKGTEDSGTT
The experiment is described as above. On the procedure:
as §2, §3

Experiment [6] has as its target T1, Fc tagged mouse TNFR2 (Sino Biological). The experiment in a line: SPR (Biacore T200) single cycle kinetics, Fc-tagged receptor captured on Protein A chip, TNF protein as analyte at 1.67-15 nM. How it is done: as §2, §3
(§4) Controls were used to ensure the integrity of the receptors during the Biacore run.

In experiment [7] the target is T3, Fc tagged mouse TNFR1 (Sino Biological). In words: SPR, Biacore T200 multi cycle kinetics, receptor-Fc captured on Protein A chip, TNF 1.25-40 nM, 1:1 model. How it is done:
as §1
(§5) As with the single cycle kinetics, receptor binding was assessed in two separate experiments. In the first set of experiments binding to hTNFR1 (Fc2), hTNFR2 (Fc3) and mTNFR1 (Fc4) was assessed. In the second set of experiments the extent of mTNF2 (Fc4) binding was assessed using hTNFR1 (Fc2) and hTNFR2 (Fc3) as controls. All receptors were diluted in running buffer to a concentration of ˜4 μg/mL and at the start of each cycle loaded onto Fc2, Fc3 and Fc4 of a Protein A CM5 chip and captured at a flow rate of 10 μL/min to give an RU of ˜40-100. The surface was then allowed to stabilise. All kinetic data was obtained using a flow rate of 75 μl/min to minimise any potential mass transfer effects. […] The association phase of TNF was monitored for 280 seconds and the dissociation phase was measured for 2100 seconds. […] Regeneration of the Protein A surface was conducted using two injections of 10 mM glycine-HCL pH 1.5 at the end of each cycle. The signal from the reference channel Fc1 was subtracted from that of Fc2, Fc3 and Fc4 to correct for differences in non-specific binding to a reference surface, and a global Rmax parameter was used in the 1-to-1 binding model.

Experiment [8] deals with T4, Fc tagged human TNFR1 (Sino Biological). The description is as above. How it is done:
as §1, §5

Experiment [9] has as its target T3, Fc tagged mouse TNFR1 (Sino Biological). The experiment in a line: SPR, Biacore single cycle kinetics, stability study, after 1 year at -80° C. On the procedure:
as §3
(§6) At day zero (prior to freezing) and following thawing on ice after 3 months and 1 year the following assays were performed: [0341] SDS-PAGE [0342] OD280 nm [0343] Single cycle Biacore for binding to hTNFR1, hTNFR2 and mTNFR1

The target of experiment [10] is T4, Fc tagged human TNFR1 (Sino Biological). The description is as above. How it is done:
as §3, §6

Experiment [11] deals with T3, Fc tagged mouse TNFR1 (Sino Biological). In words: SPR, Biacore single cycle kinetics, stability study, after 1 year at -20° C. How it is done:
as §3, §6

Experiment [12] has as its target T4, Fc tagged human TNFR1 (Sino Biological). Described as above. How it is done:
as §3, §6

For experiment [13], the target named is T2, Fc tagged human TNFR2 (Sino Biological). In words: SPR (Biacore T200) single cycle kinetics, Fc-tagged receptor captured on Protein A chip, TNF protein as analyte at 1.67-15 nM. How it is done:
as §2, §3, §4

Experiment [14] has as its target T3, Fc tagged mouse TNFR1 (Sino Biological). In words: SPR, Biacore single cycle kinetics, stability study, before freezing (t=0). On the procedure: as §3, §6
Experiment [15] addresses T4, Fc tagged human TNFR1 (Sino Biological). The experiment is described as above. On the procedure:
as §3, §6

B1: phage displaying mTNF (gene III fusion, pANT65) (other, mouse, UniProt P06804 80-235, looked up)
chain: LRSSSQNSSDKPVAHVVANHQVEEQLEWLSQRANALLANGMDLKDNQLVVPADGLYLVYSQVLFKGQGCPDYVLLTHTVSRFAISYQEKVNLLSAVKSPCPKDTPEGAELKPWYEPIYLGGVFQLEKGDQLSAEVNLPKYLDFAESGQVYFGVIAL
notes: also called mTNF (phage); not shown: FLAG tag, His6 tag and phage gene III protein of pANT65
For B1, the binding result in [1] and in [2] was “binds” in each case.

B2: TNF mutein C8 (ligand)
chain: VRSSSRTPSDKPVAHVVANPQAEGQLQWLNRRANALLANGVELRDNQLVVPSEGLYLIYSQVLFKGQGCPSTHVLLTHTISRISQTHDGKVNLLSAIKSPCQRETPEGAEAKPWYEPIYLGGVFQLEKGDRLSAEINRPDYLDFAESGQVYFGIIAL
notes: Human TNF mutein, SQTHDG at positions 84-89; not shown: C-terminal FLAG tag and His6 tag from vector pANT65
Broadly, the Kd is the concentration at which binding is half-saturated. Read a low Kd as a tighter complex. For B2, the Kd is 4.13 nM in experiment [3]; 0.363 nM in experiment [4]; 0.188 nM in [5]; 0.112 nM in experiment [7]; 0.261 nM in experiment [8]. For the same molecule, the binding result in experiment [6] was “no binding (tested: 15 nM)”.

B3: TNF variant C9 (ligand)
chain: VRSSSRTPSDKPVAHVVANPQAEGQLQWINGRANALLANGVELRDNQLVVPSEGLYLIYSQVLFKGQGCPSTHVLLTHTISRIAVTYQTKVNLLSAIKSPCQRETPEGAEAKPWYEPIYLGGVFQLEKGDRLSAEINRPDYLDDADSGQVYFGIIAL
notes: Human TNF variant from Library 2, AVTYQT at positions 84-89; not shown: C-terminal FLAG tag and His6 tag from vector pANT65
In the case of B3, the Kd amounted to 289 nM in experiment [3]; 0.607 nM in [4]; 0.0248 nM in [5]; 1.13 nM in experiment [7]; 0.0717 nM in [8]. In addition, the binding result in [6] is “no binding (tested: 15 nM)”.

B4: TNF mutein G4 (ligand)
chain: VRSSSRTPSDKPVAHVVANPQAEGQLQWLNRRANALLANGVELRDNQLVVPSEGLYLIYSQVLFKGQGCPSTHVLLTHTISRISSTYNPKVNLLSAIKSPCQRETPEGAEAKPWYEPIYLGGVFQLEKGDRLSAEINRPDYLDFAESGQVYFGIIAL
notes: Human TNF mutein, SSTYNP at positions 84-89; also called mutTNF G4; mutTNF; not shown: C-terminal FLAG tag and His6 tag from vector pANT65
Take B4: the Kd in experiment [9] is 0.0458 nM; in experiment [10], 0.0399 nM; in experiment [11] it was 0.0692 nM; in [12] it was 0.0331 nM; in [4] it was 0.0407 nM; in experiment [5], 0.0171 nM. The Kd in experiment [7] is 0.14 nM; in experiment [8], 0.00872 nM; in experiment [14], 0.07 nM; in experiment [15], 0.0173 nM. For the same molecule, the binding result in experiment [6] and in experiment [13] was “no binding (tested: 15 nM)” in each case.
